# Measurements as given in PMC8372317, “Discovering protein–protein interaction stabilisers by native mass spectrometry†” (Chemical Science, 2021).
# Non-standard residues stand in square brackets, D forms with d. pT = C[C@@H](OP(=O)(O)O)[C@H](N)C(=O)O
# T1: 14-3-3σ (UniProt P31947 1-248, partial β-mercaptoethanol capping of Cys38 (+76 Da adduct))
# T1 construct: 14-3-3σ (14-3-3 protein sigma); The His-tag is TEV protease cleavable; Observed predominantly as a dimer by native MS; also called recombinant 14-3-3σ; receptor (R)
# T1 sequence (looked up): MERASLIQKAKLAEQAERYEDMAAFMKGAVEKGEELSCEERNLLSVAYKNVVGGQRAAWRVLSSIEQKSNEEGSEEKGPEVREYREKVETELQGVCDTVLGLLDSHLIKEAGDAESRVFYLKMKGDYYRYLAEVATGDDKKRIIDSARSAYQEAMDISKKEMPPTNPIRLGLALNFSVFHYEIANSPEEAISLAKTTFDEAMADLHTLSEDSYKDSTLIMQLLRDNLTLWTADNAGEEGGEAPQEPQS
# B1: ERα(581–595) phosphopeptide (peptide)
# peptide: Ac-KYYITGEAEGFPA[pT]V-OH
# notes: estrogen receptor ERα, C-terminal fragment, residues 581-595; also called C-terminal fragment of estrogen receptor ERα; source: synthetic peptide, bought: Synpeptide Ltd (>95% purity)
# Biological target: T1, 14-3-3σ
# Experiment: native MS; 14-3-3σ 5 μM (monomer) with 25 μM phosphopeptide, no ligand (R:P:L 1:5:0); 50 mM ammonium acetate pH 6.8, 0.25% DMSO
# Conditions: both partners purified
binder,measurement,value
B1,stoichiometry N,2 peptide per 14-3-3σ dimer
